By Kd is commonly meant the constant that tells how readily two partners part at equilibrium. Higher therefore signals weaker binding. The term koff denotes the first-order rate constant of dissociation. A lower koff goes with slow dissociation. A word on the kon: it is the second-order rate constant of association. A lower kon goes with slower complex formation. The term t½ denotes the time needed for the level to fall by half in the phase considered.

The values that follow come from US20240425587A1 (Alector, published 2024).

Assay [1] has as its target human PILRA on the surface of primary human macrophages or monocytes (human, UniProt Q9UKJ1 20-303). In words: cell-based or functional assay.
For assay [2], the target named is T1, human PILRA, c-term His-Avi tag (human, UniProt Q9UKJ1 20-197, limits assumed).
T1 construct: not shown: C-terminal His-Avi tag
T1 sequence (Q9UKJ1 20-197 limits assumed): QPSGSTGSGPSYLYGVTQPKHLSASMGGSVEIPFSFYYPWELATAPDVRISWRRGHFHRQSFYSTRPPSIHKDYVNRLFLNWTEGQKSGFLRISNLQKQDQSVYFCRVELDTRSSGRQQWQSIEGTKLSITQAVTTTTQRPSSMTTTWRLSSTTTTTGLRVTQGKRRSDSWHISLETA
As to the kind of experiment: SPR (Biacore), antibody captured, PILRA as analyte. The gist of the method: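 Antibodies were captured at 10 μg/ml on an anti-huFc or anti-msFc CM5 surface, and human PILRA was flowed at 33, 100 and 300 nM in HBSTE/0.5% BSA, pH 7.4. The surface was regenerated with 10 mM glycine-HCl, pH 2.1, after each analyte. Curves were double-referenced with buffer injections.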
(In general: Surface plasmon resonance follows binding to a sensor surface in real time, without labels.)

The target of assay [3] is T2, human PILRB, ectopically expressed on 293 cells (human, UniProt Q9UKJ0 20-227).
T2 construct: also called hB
T2 sequence (Q9UKJ0 20-227): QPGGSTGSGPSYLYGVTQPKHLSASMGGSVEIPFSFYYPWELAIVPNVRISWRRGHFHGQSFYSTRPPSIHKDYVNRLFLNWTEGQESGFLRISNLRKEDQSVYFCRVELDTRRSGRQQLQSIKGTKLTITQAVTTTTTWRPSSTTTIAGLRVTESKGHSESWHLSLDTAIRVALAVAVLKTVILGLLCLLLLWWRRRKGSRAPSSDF
In words: flow cytometry, MFI relative to 293 parental cells. How it is done:
(§1) Briefly, conditioned media containing antibodies were incubated with 293 cells for 30 min at 4° C., washed twice, and then detected with anti-mouse IgG Alexa 647.
(In flow cytometry, cells or beads pass a laser one at a time.)

For assay [4], the target named is T3, murine PILRB, ectopically expressed on 293 cells (murine, UniProt Q2YFS2 29-224).
T3 construct: whole, on cells; also called mB
T3 sequence (Q2YFS2 29-224): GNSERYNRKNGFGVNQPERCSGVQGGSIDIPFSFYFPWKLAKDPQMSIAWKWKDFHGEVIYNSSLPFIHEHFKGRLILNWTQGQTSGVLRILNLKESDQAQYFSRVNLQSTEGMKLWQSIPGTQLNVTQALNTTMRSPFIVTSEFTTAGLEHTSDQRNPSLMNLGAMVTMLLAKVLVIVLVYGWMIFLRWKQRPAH
In words: flow cytometry, MFI relative to 293 parental cells. How it is done: as §1

In assay [5] the target is T4, murine PILRA, ectopically expressed on 293 cells (murine, UniProt Q2YFS3 32-302).
T4 construct: also called mA
T4 sequence (Q2YFS3 32-302): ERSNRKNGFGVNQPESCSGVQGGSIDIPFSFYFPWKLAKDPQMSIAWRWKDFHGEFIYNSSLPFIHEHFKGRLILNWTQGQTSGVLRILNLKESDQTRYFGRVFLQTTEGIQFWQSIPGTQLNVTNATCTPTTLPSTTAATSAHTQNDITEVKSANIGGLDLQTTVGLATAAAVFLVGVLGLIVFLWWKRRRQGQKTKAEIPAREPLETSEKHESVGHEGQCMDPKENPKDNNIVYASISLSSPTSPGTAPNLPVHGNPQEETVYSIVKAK
As to the kind of experiment: flow cytometry, MFI relative to 293 parental cells. How it is done:
as §1

Assay [6] has as its target T5, cynomolgus PILRA, ectopically expressed on 293 cells (cynomolgus monkey). As to the kind of experiment: flow cytometry, MFI relative to 293 parental cells. How it is done: as §1
For assay [7], the target named is T6, human PILRA, G78 variant, ectopically expressed on 293 cells (human, UniProt Q9UKJ1 20-303).
T6 construct: the cells are labelled G78; also called hA G78 OE; hA
T6 sequence (Q9UKJ1 other isoform, or with tags, fused parts or gaps mutant): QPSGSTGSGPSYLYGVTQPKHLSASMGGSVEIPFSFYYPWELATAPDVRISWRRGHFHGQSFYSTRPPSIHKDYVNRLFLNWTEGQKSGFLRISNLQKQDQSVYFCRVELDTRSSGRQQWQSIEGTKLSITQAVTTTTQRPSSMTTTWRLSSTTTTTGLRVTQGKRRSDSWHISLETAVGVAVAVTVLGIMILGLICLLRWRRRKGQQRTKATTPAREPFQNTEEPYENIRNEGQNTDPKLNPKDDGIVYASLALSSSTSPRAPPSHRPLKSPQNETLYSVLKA
As to the kind of experiment: flow cytometry, MFI relative to 293 parental cells. How it is done: as §1

Assay [8] deals with T7, PILRA Fc (soluble human PILRA) (human, UniProt Q9UKJ1 20-197, limits assumed).
T7 construct: also called soluble PILRA; not shown: Fc part, detected with anti-human IgG
T7 sequence (Q9UKJ1 20-197 limits assumed): as the sequence (Q9UKJ1 20-197 limits assumed) above
In words: flow cytometry; PILRA Fc binding to human CD3+ T cells with antibody, relative to PILRA Fc alone. How it is done:
(§2) The ability of conditioned media samples containing antibodies to inhibit the binding of PILRA Fc to human CD3+ T cells was assessed. Briefly, conditioned media samples containing antibodies were incubated with 1.25 ug/ml PILRA Fc for 30 min at 4° C. and then added to human T cells. After 30 minutes incubation at 4° C., cells were washed, and bound PILRA Fc was detected with anti-human IgG Alexa 647. Cells were analyzed by flow cytometry on FACS Canto II, and for all cell lines, the amount of PILRA Fc binding (MIFI) and the percentage of PILRA Fc binding in the presence of conditioned media relative to PILRA Fc binding alone was calculated. Several antibodies inhibited binding of PILRA Fc to human T cells, and a few antibodies enhanced PILRA-Fc binding to T cells. Antibodies that show enhancement in this assay may block cis inhibition to promote trans interactions or may allosterically activate to enhance trans interactions without blocking cis.

The target of assay [9] is T6, human PILRA, G78 variant, ectopically …. As to the kind of experiment: flow cytometry; NPDC1-mIgGa binding to 293 cells expressing human PILRA G78 with antibody, relative to NPDC1 Fc alone. How it is done:
Conditioned media samples containing antibodies (10 ug/ml) were assessed for modulating the binding of Neural Proliferation Differentiation and Control Protein 1 (NPDC1) Fc to 293 cells ectopically expressing human PILRA. Briefly, conditioned media samples containing antibodies were incubated with 293 cells expressing human PILRA for 30 minutes at 4° C., and then 5 μg/ml NPDC1 Fc was added to this mixture. Where the antibodies were generated from phage panning, a NPDC1-hIgG1 ligand was used. Where the antibodies were generated from hybridomas, a NPDC1-mIgGa ligand was used. After 30 minutes incubation at 4° C., cells were washed and cell-bound NPDC1 Fc was detected with anti-human or mouse IgG Alexa 647. Cells were analyzed by flow cytometry on FACS Canto II, and for all cell lines, the percentage of NPDC1 Fc binding in the presence of conditioned media relative to NPDC1 Fc binding alone was calculated. Several antibodies decreased binding of NPDC1 to human PILRA, and a few antibodies enhanced ligand binding to human PILRA. Antibodies that show enhancement in this assay may block cis inhibition to promote trans interactions or may allosterically activate to enhance trans interactions without blocking cis.

Assay [10] deals with T5, cynomolgus PILRA, ectopically expressed …. As to the kind of experiment: screening summary, TCP groups.
Assay [11] addresses T7, PILRA Fc (soluble human PILRA). In words: flow cytometry blocking assay, graph 'V1 Blocking_CD3+T Donor 906': antibody mixed with PILRA-Fc, then human CD3+ T cells; bound PILRA-Fc detected with AF647 2nd Ab; blocked partner: PILRA ligand on the T cells. How it is done:
as §2

T5 sequence (chain, as listed by the source): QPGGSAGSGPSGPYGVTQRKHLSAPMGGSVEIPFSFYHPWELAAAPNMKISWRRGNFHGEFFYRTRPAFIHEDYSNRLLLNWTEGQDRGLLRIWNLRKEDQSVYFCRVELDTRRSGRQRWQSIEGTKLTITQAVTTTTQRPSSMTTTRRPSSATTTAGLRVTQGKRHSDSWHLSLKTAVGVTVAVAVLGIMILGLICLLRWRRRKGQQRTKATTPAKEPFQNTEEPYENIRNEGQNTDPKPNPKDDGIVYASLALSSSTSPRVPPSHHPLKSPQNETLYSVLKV
human PILRA on the surface of primary human macrophages or monocytes, sequence (Q9UKJ1 20-303): as the sequence (Q9UKJ1 other isoform, or with tags, fused parts or gaps mutant) above, with G59R counted along it

B1: A16 (hIgG4 isotype) (antibody, V domains shown)
VH: QVQLVQSGAEVKKPGSSVKVSCKASGYNFLNYDVNWVRQAPGQGLEWMGGIIPIFGTANYAQKFQGRVTITADESTSTAYMELSSLRSEDTAVYYCATGVGAGWFDPWGQGTLVTVSS
VL: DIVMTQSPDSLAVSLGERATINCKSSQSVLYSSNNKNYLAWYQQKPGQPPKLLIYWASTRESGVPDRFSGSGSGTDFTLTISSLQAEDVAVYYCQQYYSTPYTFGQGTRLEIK
For the molecule B1, the “hPILRA downregulation EC50” value in assay [1] came to 0.4 µg/mL.

B2: C2 (antibody, V domains shown)
VH: QVQLQQSGAELVRPGASVTLSCKAAGYTFADYEMHWVRQTPVLGLEWIGAIDSEPGRTVYNQKFKSKAILTADKSSSTAYMELRSLTSDDSAVYYCTRRGAFYTNYDFFDYWGQGTTLTVSS
VL: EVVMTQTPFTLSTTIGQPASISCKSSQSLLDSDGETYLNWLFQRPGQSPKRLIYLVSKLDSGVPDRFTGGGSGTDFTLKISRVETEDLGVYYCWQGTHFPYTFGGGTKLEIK
notes: first hybridoma campaign
Consider B2, for which, in assay [2], binding was put at a Kd of 2.2 nM. The koff in [2] was 0.0038 s⁻¹. Also, in assay [2], the kon was determined as 1.7e+06 M⁻¹ s⁻¹. The molecule also showed a t½ in assay [2] of 3.1 min. Also, the MFIr stood at 1.1 in assay [3]; 0.8 in assay [4]; 0.9 in [5]; 2.7 in [6]; 102 in assay [7]. The “% Binding” value amounted to 66.2% in assay [8] and 177% in assay [9].

B3: C1 (antibody, V domains shown)
VH: QIQLVQSGPELKKPGETVKISCKASGYTFTTYGMSWVKQAPGKGLKWMGWINTYSGVPTYADDFQGRFAFSLETSASTAYLQINNLKNEDTAPYFCVRDGYAAPYWGQGTLVTVSA
VL: NIMMTQSPSSLAVSAGEKVTMRCKSSQSVLYSSNQKNYLAWYQQKPGQSPKLLIYWASTRESGVPDRFTGSGSGTDFTLTISSVQAEDLAVYYCHQYLSSWTFGGGTKLEIK
notes: first hybridoma campaign
Molecule B3 displayed a Kd in assay [2] of 45 nM. Also, in assay [2], the koff is 0.0037 s⁻¹. In assay [2], this molecule displayed an on-rate (kon) of 81000 M⁻¹ s⁻¹. Moreover, in assay [2], the t½ is 3.2 min. Moreover, the MFIr in [3] worked out at 1.2; in assay [4], 0.8; in assay [5], 0.8; in assay [6] it was 70.5; in assay [7], 113. The “% Binding” value in [8] is 60%; in [9], 158%.

B4: B1 (hIgG4 isotype) (antibody, V domains shown)
VH: DVKLVESGGGLVKLGGSLKLSCAASGFTFSSYYMSWVRQTPEKRLEWVAAINSNGDRSYYPDTVKGRFTISRDNAKNTLYLQMSSLKSEDTAFYYCASHGNYYGSPWFAYWGQGTLVTVSA
VL: ETTVTQSPASLSVATGEKVTIRCKTSTDIDDDMNWYQQKPGEPPKLLISEGNTLRPGVPSRFSSSGYGTDFVFTIENTLSEDVADYYCLQNDHMPLTFGGGTKLEIK
Take B4: in assay [1], the “hPILRA downregulation EC50” value amounted to 0.009 µg/mL.

B5: B3 (hIgG4 isotype) (antibody, V domains shown)
VH: EVKLVESGGGLVKPGGSLKLSCTASGFTFSNYAMSWVRQTPEKRLEWVASISGGGSTYYPDSVKGRFTIAIDYARNILYLQMSSLRSEDTAIYFCTRGVSYGDYAMDYWGQGTSVTVSS
VL: ETTVTQSPASLSMAIGEKVTIRCVTSTDIDDDMNWYQQKPGGPPKLLISEGNTLRPGVPSRFSSSGYGSDFVFTIEDMLSEDVADYYCLQSDNLPLTFGAGTKVELK
Consider B5, for which, in [1], the “hPILRA downregulation EC50” value is 0.006 µg/mL.

B6: B3 (antibody, V domains shown)
VH: EVKLVESGGGLVKPGGSLKLSCTASGFTFSNYAMSWVRQTPEKRLEWVASISGGGSTYYPDSVKGRFTIAIDYARNILYLQMSSLRSEDTAIYFCTRGVSYGDYAMDYWGQGTSVTVSS
VL: ETTVTQSPASLSMAIGEKVTIRCVTSTDIDDDMNWYQQKPGGPPKLLISEGNTLRPGVPSRFSSSGYGSDFVFTIEDMLSEDVADYYCLQSDNLPLTFGAGTKVELK
notes: B-cell cloning campaign (mice)
With B6, the binding result in [2] was “no binding (tested: 33, 100, and 300 nM)”; in [10], “binds”.

B7: B4 (antibody, V domains shown)
VH: EVKLVESGGGLVKPGGSLKLSCTASGFTFSNYAMSWVRQTPEKRLEWVASISGGGSTYYPDSVKGRFTIAIDYARNILYLQMSSLRSEDTAIYYCTRGVSYGDYAMDYWGQGTSVTVSS
VL: ETTVTQSPASLSMAIGEKVTIRCVTSTDIDDDMNWYQQKPGGPPKLLISEGNTLRPGVPSRFSSSGYGSDFVFTIEDMLSEDVADYYCLQSDNLPLTFGAGTKVELK
notes: as for B6
In [2], B7 had a Kd of 88.3 nM, a koff of 0.00054 s⁻¹, a kon of 6100 M⁻¹ s⁻¹ and a t½ of 21.4 min. In addition, the binding result in assay [10] is reported as “binds”.

B8: hPA-002 (hIgG4 isotype) (antibody, V domains shown)
VH: QVTLQESGPGILQPSQTLSLTCSFSGFSLSTFGMGVGWIRQPSGKGLEWLAHIWWDDDKYYNPALKSRLTISKDTSKNQVFLKIASVDTADIATYYCARVEDYGNPFDYWGQGTTL
VL: DIQMNQSPSSLSASLGDTITITCHASQNIHVWLNWYQQKPGNIPKLLIYKASNLHTGVPSRFSGSGSGTGFTVTISSLQPEDIATYYCQQGQSYPLTFGAGTKLELK
Take B8: the “hPILRA downregulation EC50” value in [1] was 0.48 µg/mL.

B9: hPA-004 (antibody, V domains shown)
VH: QVTLKESGPGMLQPSQTLSLACSFSGFSLNSFGVAVGWIRQPSGKGLEWLAHIWWDDDKSYNPALKSRLTISKDTSKNQVFLKLANVDTADTATYYCTRIADYGNHFDYWGQGTALTVSS
VL: DIQMNQSPSSLSASLGDTITITCHASQNSHVWLSWYQQKPGNIPKLLIYKASNLHTGVPSRFSGSGSGTGFTLTISGLQPEDIATYYCQQGQTYPFTFGSGTKLEIK
In assay [2], B9 yielded a Kd of 9 nM, a koff of 0.0011 s⁻¹, a kon of 130000 M⁻¹ s⁻¹ and a t½ of 10.1 min. The “IC50 (read off the curve)” value in assay [11] was ~3 µg/mL.

B10: hPA-005 (antibody, V domains shown)
VH: QVILKESGPGILQSSQTLSLTCSFSGFSLSTFGMGVGWIRQPSGKGLESLAHIWWDDDKFYNPALKSRLTISKDTSKSQVFLKIANVDTADIATYYCTRIEDYGSYFAYWGQGTTLTVSS
VL: DVQMNQSPSSLSASLGDPITITCHASQNIHVWLNWYQQRPGNIPRLLIYKASNLHTGVPSRFSGSGSGTGFTLTISSLQPEDIATYYCQQGQSYPYTFGGGTKLEIK
In assay [2], B10 returned a Kd of 7 nM, an off-rate constant (koff) of 0.0015 s⁻¹, a kon of 210000 M⁻¹ s⁻¹ and a t½ of 7.9 min. The “IC50 (read off the curve)” value in assay [11] was ~3 µg/mL.

B11: hPA-002 (antibody, V domains shown)
VH: QVTLQESGPGILQPSQTLSLTCSFSGFSLSTFGMGVGWIRQPSGKGLEWLAHIWWDDDKYYNPALKSRLTISKDTSKNQVFLKIASVDTADIATYYCARVEDYGNPFDYWGQGTTL
VL: DIQMNQSPSSLSASLGDTITITCHASQNIHVWLNWYQQKPGNIPKLLIYKASNLHTGVPSRFSGSGSGTGFTVTISSLQPEDIATYYCQQGQSYPLTFGAGTKLELK
In [2], B11 showed a Kd of 23.4 nM, a koff of 0.0052 s⁻¹, a kon of 220000 M⁻¹ s⁻¹ and a t½ of 2.2 min. Also, the “IC50 (read off the curve)” value in assay [11] is ~1 µg/mL.
